Data taken from patent US20220017627A1 (Bristol-Myers Squibb, published 2022).

Legend:
[1] = target: T1, cynomolgus IL-7Rα expressed on cynomolgus T cells / leukocytes (cynomolgus, UniProt Q38IC7 21-459); experiment: flow cytometry, occupancy of IL-7Ra on CD4+CD45RA+ T cells of cynomolgus monkeys after a single i.v. dose, against serum concentration
T1 construct: also called cyno IL-7Rα
T1 sequence: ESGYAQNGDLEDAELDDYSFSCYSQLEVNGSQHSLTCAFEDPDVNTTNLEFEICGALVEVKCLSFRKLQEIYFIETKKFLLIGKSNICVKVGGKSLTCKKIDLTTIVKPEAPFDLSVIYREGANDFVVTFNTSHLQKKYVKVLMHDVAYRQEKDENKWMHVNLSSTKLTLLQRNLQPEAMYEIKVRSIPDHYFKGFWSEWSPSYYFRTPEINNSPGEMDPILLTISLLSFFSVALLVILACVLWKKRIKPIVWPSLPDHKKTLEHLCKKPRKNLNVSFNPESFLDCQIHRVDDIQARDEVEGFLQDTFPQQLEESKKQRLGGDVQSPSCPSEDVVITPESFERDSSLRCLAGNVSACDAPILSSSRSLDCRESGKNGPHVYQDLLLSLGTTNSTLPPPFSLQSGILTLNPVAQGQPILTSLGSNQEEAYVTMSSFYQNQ
Procedure: To confirm the above cross-reactivity data, cellular binding and functional blockade were also assessed. […] Then, at day 8 post-administration, PBMCs were isolated from the animals.

[2] = target: T2, human IL-7Rα expressed on human T cells (whole blood / PBMCs) (human, UniProt P16871 21-239); experiment: flow cytometry binding, CD4+CD45RA+ T cells in whole blood
T2 construct: Native receptor on primary cells; also called CD127
T2 chain: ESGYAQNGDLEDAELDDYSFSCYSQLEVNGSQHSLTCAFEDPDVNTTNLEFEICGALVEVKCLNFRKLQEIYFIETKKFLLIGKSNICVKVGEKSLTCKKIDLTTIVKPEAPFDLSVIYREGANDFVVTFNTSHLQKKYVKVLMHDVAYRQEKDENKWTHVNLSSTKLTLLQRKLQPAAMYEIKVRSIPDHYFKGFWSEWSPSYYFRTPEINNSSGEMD

[3] = target: T2, human IL-7Rα expressed on human T cells …; experiment: flow cytometry binding, CD4+CD45RA- T cells in whole blood
[4] = target: T3, his-tagged human-IL7R extracellular domain construct (human, UniProt P16871 21-239); experiment: SPR (Biacore T200), antibody captured on protein A, his-tagged ECD as analyte, 37° C., pH 6.0
T3 construct: Generated in house; also called human IL-7Rα; not shown: his tag
T3 chain: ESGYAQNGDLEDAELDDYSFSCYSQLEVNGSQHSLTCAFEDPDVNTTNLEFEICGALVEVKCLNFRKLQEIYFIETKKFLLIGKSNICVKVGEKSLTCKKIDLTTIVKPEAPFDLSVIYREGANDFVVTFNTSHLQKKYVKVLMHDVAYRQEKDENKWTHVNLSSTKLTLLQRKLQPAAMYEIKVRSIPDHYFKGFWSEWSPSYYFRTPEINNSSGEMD
Procedure: (§1) Briefly, experiments were performed on a BIACORE™ T200 instrument (GE Healthcare, Chicago, Ill., USA) in a running buffer consisting of 10 mM NaPO4, 130 mM NaCl, 0.05% p20 (PBS-T) at either pH 7.4 or pH 6.0. The chip surface was prepared by immobilizing protein A on flow cell 1, 2, 3, and 4 of a CM5 sensor chip using ethyl(dimethylaminopropyl) carbodiimide/NHS to a density of 4000 RU. […] Purified extracellular domain constructs (generated in house) of his-tagged human-IL7R or cynomolgus-IL7R were tested for binding using a 2 fold serial dilution from 500 nM to 7.8 nM, with 180 s association time and 360 s dissociation time at 30 μl/min. Regeneration between cycles was accomplished using 2×30 second injections of 10 mM glycine-HCL pH 1.5. The data were analyzed using the Biacore T200 Evaluation software (GE Healthcare), and fit to a 1:1 Langmuir model.

[5] = target: T4, his-tagged cynomolgus-IL7R extracellular domain construct (cynomolgus, UniProt Q38IC7 21-240); experiment: as above
T4 construct: also called cyno IL-7Rα; not shown: his tag
T4 sequence: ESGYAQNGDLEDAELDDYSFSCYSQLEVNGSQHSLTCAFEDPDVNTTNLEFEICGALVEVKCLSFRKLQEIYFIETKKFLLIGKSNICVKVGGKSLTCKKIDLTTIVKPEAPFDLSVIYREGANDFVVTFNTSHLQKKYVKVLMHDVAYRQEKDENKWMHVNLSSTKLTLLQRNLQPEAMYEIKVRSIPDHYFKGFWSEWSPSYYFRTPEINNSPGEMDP
Procedure: as §1

[6] = target: T2, human IL-7Rα expressed on human T cells …; experiment: cell-based or functional assay
[7] = target: T3, his-tagged human-IL7R extracellular …; experiment: SPR (Biacore T200), pH 6.0 against pH 7.4
Procedure: as §1

[8] = target: T4, his-tagged cynomolgus-IL7R …; experiment: SPR (Biacore T200), pH 6.0 against pH 7.4
Procedure: as §1

[9] = target: T2, human IL-7Rα expressed on human T cells …; experiment: flow cytometry binding, CD8+CD45RA- T cells in whole blood
[10] = target: T2, human IL-7Rα expressed on human T cells …; experiment: cell-based or functional assay
hIL-7R (Example 11) [11] = target: T5, hIL-7R (Example 11) (human, UniProt P16871 21-239); experiment: Biacore, mAb captured on anti-human IgG CM5 chip, hu IL-7R as analyte (top curve 33.3nM), HBS-P+ pH 7.4, 37 C
T5 construct: Called full length hIL-7R for the mRNA display and hIL-7R for the Biacore runs; also called full length hIL-7R; human IL-7R
T5 chain: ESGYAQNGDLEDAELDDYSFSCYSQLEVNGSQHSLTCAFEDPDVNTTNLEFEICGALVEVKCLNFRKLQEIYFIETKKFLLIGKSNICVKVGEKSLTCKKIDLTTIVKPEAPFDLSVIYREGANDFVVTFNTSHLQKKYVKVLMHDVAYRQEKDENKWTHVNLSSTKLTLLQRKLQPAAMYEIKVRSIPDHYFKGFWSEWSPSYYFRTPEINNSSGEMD
Source text: (§2) Affinity (KD) of each variant binding to hIL-7R was obtained using this approach, and compared against the enrichment ratio (ER) obtained through NGS heat map analysis for the same variant.

[12] = target: T2, human IL-7Rα expressed on human T cells …; experiment: flow cytometry binding, CD8+CD45RA+ T cells in whole blood
hIL-7R (Example 11) [13] = target: T5, hIL-7R (Example 11); experiment: SPR (Biacore), reference of the ratio [cont'd]
Source text: as §2

[14] = target: T1, cynomolgus IL-7Rα expressed on …; experiment: cell-based or functional assay
[15] = target: T3, his-tagged human-IL7R extracellular …; experiment: SPR (Biacore T200), antibody captured on protein A, his-tagged ECD as analyte, 37° C., pH 7.4
Procedure: as §1

[16] = target: T4, his-tagged cynomolgus-IL7R …; experiment: as above
Procedure: as §1

hIL-7R (Example 11) [17] = target: T5, hIL-7R (Example 11); experiment: NGS enrichment ratio of the mutation in the scFv library selected at 0.2 nM hIL-7R [cont'd]
Source text: (§3) All six CDRs of the antibody were mutated, with each position in the CDR mutated to all possible amino acids at that position. […] FIGS. 17A and 17B provide a schematic of the overall process.

hIL-7R (Example 11) [18] = target: T5, hIL-7R (Example 11); experiment: SPR (Biacore), ratio KD of parent 18B1 to KD of variant [cont'd]
Source text: as §2

hIL-7R (Example 11) [19] = target: T5, hIL-7R (Example 11); experiment: NGS enrichment ratio of the mutation in the scFv library selected at 0.2 nM hIL-7R
Source text: as §3

hIL-7R (Example 11) [20] = target: T5, hIL-7R (Example 11); experiment: SPR (Biacore), ratio KD of parent 18B1 to KD of variant; row repeated at the end of the table [cont'd]
Source text: as §2

hIL-7R (Example 11) [21] = target: T5, hIL-7R (Example 11); experiment: SPR (Biacore), ratio KD of parent 18B1 to KD of variant
Source text: as §2

B1: Anti-IL-7R Antibody (Antibody A) (antibody, human IgG1, kappa, V domains shown)
VH: EVQLVESGGGLVQPGRSLRLSCAASGFTFDDHAMHWVRQAPGKGLEWVSGISWNSRGIGYADSVKGRFTIFRDNAKNSLYLQMNSLRAEDTALYYCAKDEYSRGYYVLDVWGQGTTVTVSS
VL: AIQLTQSPSSLSASVGDRVTITCRASQGISSALAWYQQKPGKAPKLLIYDASSLESGVPSRFSGSGSGTDFTLTISSLQPEDFATYYCQQFNSYPLWITFGQGTRLEIKR
notes: also called 18B1; 18B1 antibody
- EC50 (read off the curve) [1]: ~0.04 mg/L
- EC50 [2]: 1.4 nM
- EC50 [3]: 3.3 nM
- Kd [4]: 5.3 nM
- koff [4]: 0.0013 s⁻¹
- kon [4]: 240000 M⁻¹ s⁻¹
- Kd [5]: 7 nM
- koff [5]: 0.0016 s⁻¹
- kon [5]: 230000 M⁻¹ s⁻¹
- pSTAT5 IC50, IL-7 stimulated CD4+CD45RA+ T cells, CD (n = 10) [6]: 0.36 nM
- pSTAT5 IC50, IL-7 stimulated CD4+CD45RA+ T cells, NHV (n = 19) [6]: 0.6 nM
- pSTAT5 IC50, IL-7 stimulated CD4+CD45RA+ T cells, UC (n = 21) [6]: 0.34 nM
- pSTAT5 IC50, IL-7 stimulated CD4+CD45RA- T cells, CD (n = 10) [6]: 0.36 nM
- pSTAT5 IC50, IL-7 stimulated CD4+CD45RA- T cells, NHV (n = 19) [6]: 0.52 nM
- pSTAT5 IC50, IL-7 stimulated CD4+CD45RA- T cells, UC (n = 21) [6]: 0.28 nM
- pSTAT5 IC50, IL-7 stimulated CD8+CD45RA+ T cells, CD (n = 10) [6]: 0.29 nM
- pSTAT5 IC50, IL-7 stimulated CD8+CD45RA+ T cells, NHV (n = 19) [6]: 0.43 nM
- pSTAT5 IC50, IL-7 stimulated CD8+CD45RA+ T cells, UC (n = 21) [6]: 0.29 nM
- pSTAT5 IC50, IL-7 stimulated CD8+CD45RA- T cells, CD (n = 10) [6]: 0.23 nM
- pSTAT5 IC50, IL-7 stimulated CD8+CD45RA- T cells, NHV (n = 19) [6]: 0.38 nM
- pSTAT5 IC50, IL-7 stimulated CD8+CD45RA- T cells, UC (n = 21) [6]: 0.22 nM
- fold weaker binding at pH 6.0 than at pH 7.4 [7]: ~4 fold
- fold weaker binding at pH 6.0 than at pH 7.4 [8]: ~4 fold
- EC50 [9]: 1.9 nM
- pSTAT5 IC50, CD4+CD45RA+ T cells in whole blood, IL-7 (0.25 ng/mL) [10]: 0.6 nM
- pSTAT5 IC50, CD4+CD45RA+ T cells in whole blood, IL-7 (2.0 ng/mL) [10]: 2.1 nM
- Kd (hIL-7R (Example 11) [11]): 1.4 nM
- koff (hIL-7R (Example 11) [11]): 0.00152 s⁻¹
- kon (hIL-7R (Example 11) [11]): 1.09e+06 M⁻¹ s⁻¹
- EC50 [12]: 2 nM
- KD Relative to 18B1 (hIL-7R (Example 11) [13]): 1
- IC50 of IL-7 mediated pSTAT5 activation against serum antibody concentration, cynomolgus monkeys [14]: ~2
- Kd [15]: 1.3 nM
- koff [15]: 0.0004 s⁻¹
- kon [15]: 310000 M⁻¹ s⁻¹
- Kd [16]: 1.7 nM
- koff [16]: 0.0005 s⁻¹
- kon [16]: 290000 M⁻¹ s⁻¹

B2: 18B1 LC S56A (antibody, human IgG1, kappa, V domains shown)
VH: EVQLVESGGGLVQPGRSLRLSCAASGFTFDDHAMHWVRQAPGKGLEWVSGISWNSRGIGYADSVKGRFTIFRDNAKNSLYLQMNSLRAEDTALYYCAKDEYSRGYYVLDVWGQGTTVTVSS
VL: AIQLTQSPSSLSASVGDRVTITCRASQGISSALAWYQQKPGKAPKLLIYDASSLEAGVPSRFSGSGSGTDFTLTISSLQPEDFATYYCQQFNSYPLWITFGQGTRLEIKR
- 0.2 nM NGS (hIL-7R (Example 11) [17]): 0.96
- KD Relative to 18B1 (hIL-7R (Example 11) [18]): 0.98

B3: 18B1 LC R24A (antibody, human IgG1, kappa, V domains shown)
VH: EVQLVESGGGLVQPGRSLRLSCAASGFTFDDHAMHWVRQAPGKGLEWVSGISWNSRGIGYADSVKGRFTIFRDNAKNSLYLQMNSLRAEDTALYYCAKDEYSRGYYVLDVWGQGTTVTVSS
VL: AIQLTQSPSSLSASVGDRVTITCAASQGISSALAWYQQKPGKAPKLLIYDASSLESGVPSRFSGSGSGTDFTLTISSLQPEDFATYYCQQFNSYPLWITFGQGTRLEIKR
- 0.2 nM NGS (hIL-7R (Example 11) [19]): 0.91
- KD Relative to 18B1 (hIL-7R (Example 11) [20]): 1.15
- KD Relative to 18B1 (hIL-7R (Example 11) [21]): 1.15
